Source: patent US20250136702A1, “HUMAN LIFR ANTIGEN BINDING PROTEIN, PREPARATION METHOD THEREFOR, AND APPLICATION THEREOF” (NONA BIOSCIENCES (SUZHOU) CO., LTD., priority 2020, published 2025)

How the values were obtained:
[1] = molecular target: human LIFR expressed on the surface of 293T cells (human) (UniProt P42702); test: flow cytometry on HEK293T-huLIFR cells, median fluorescence, span of the fitted curve
[2] = molecular target: human LIFR/gp130 heterodimer expressed on the surface of 293T cells (human) (UniProt P42702); test: flow cytometry on HEK293T-huLIFR/gp130 cells, median fluorescence, span of the fitted curve
Sequence of human LIFR/gp130 heterodimer expressed on the surface of 293T cells (human) (P42702 45-1097, chain 1 of 2): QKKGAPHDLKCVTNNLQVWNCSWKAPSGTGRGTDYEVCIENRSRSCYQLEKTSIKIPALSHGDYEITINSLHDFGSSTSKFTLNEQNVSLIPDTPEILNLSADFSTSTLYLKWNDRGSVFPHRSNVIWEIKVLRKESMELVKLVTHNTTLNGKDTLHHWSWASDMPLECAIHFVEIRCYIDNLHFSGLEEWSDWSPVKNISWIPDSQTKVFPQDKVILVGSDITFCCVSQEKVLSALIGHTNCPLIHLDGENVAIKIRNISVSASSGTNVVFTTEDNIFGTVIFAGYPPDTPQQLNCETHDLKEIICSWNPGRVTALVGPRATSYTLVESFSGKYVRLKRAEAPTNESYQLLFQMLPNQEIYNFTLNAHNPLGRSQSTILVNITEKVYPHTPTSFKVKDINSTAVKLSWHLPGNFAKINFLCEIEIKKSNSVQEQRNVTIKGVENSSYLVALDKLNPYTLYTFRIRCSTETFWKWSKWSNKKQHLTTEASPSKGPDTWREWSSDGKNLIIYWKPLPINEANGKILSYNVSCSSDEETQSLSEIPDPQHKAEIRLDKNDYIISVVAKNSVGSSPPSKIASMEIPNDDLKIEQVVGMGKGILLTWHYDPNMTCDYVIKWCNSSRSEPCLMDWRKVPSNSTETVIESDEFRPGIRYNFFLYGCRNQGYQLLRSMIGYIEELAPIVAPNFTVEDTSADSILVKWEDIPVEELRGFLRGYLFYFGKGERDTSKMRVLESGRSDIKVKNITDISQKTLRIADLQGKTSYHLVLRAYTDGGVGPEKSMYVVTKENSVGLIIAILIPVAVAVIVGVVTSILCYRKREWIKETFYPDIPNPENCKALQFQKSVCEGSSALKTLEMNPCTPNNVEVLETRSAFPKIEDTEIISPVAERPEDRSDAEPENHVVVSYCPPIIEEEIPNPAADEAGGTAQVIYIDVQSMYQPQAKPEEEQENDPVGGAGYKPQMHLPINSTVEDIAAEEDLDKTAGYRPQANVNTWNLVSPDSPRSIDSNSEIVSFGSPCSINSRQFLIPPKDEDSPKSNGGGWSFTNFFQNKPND
Sequence of human LIFR/gp130 heterodimer expressed on the surface of 293T cells (human) (P40189 23-918, chain 2 of 2, further chain): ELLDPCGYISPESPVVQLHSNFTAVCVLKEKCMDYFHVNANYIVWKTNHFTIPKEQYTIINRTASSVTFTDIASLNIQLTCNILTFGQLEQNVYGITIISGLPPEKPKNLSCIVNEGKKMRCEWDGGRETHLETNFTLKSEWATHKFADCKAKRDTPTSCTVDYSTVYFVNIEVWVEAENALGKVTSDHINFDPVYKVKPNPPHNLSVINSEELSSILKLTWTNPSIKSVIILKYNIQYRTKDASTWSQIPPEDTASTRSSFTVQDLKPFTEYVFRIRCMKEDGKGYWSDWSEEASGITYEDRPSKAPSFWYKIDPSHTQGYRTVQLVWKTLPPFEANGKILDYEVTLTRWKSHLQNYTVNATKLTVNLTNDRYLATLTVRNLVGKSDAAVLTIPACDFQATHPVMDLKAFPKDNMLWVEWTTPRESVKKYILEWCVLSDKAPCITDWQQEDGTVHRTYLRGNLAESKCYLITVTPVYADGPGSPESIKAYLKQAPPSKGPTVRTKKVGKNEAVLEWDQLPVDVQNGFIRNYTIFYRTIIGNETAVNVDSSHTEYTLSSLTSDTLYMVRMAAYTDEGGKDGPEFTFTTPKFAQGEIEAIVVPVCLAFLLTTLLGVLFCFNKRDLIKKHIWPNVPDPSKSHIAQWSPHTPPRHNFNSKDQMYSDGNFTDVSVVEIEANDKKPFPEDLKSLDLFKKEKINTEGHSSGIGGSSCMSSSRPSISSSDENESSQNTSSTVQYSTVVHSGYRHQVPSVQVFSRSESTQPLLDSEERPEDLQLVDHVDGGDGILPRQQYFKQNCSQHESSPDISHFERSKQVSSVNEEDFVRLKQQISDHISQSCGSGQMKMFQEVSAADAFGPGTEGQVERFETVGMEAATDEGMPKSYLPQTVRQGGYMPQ

Sequence of human LIFR expressed on the surface of 293T cells (human) (P42702 45-1097): as the sequence (P42702 45-1097, chain 1 of 2) above

Q: For hIgG1 (antibody), which Span [1] is on record?
A: 12

Q: And the Span [2]?
A: 90.1
